Test results taken from publication PMC4018323.

Molecular target: GOLPH3 (endogenous) (human (endogenous in HeLa)) (UniProt Q9H4A6)
Test: co-IP
Settings: remark: other sources report otherwise

Chain of GOLPH3 (endogenous) (human (endogenous in HeLa)) (Q9H4A6 whole entry): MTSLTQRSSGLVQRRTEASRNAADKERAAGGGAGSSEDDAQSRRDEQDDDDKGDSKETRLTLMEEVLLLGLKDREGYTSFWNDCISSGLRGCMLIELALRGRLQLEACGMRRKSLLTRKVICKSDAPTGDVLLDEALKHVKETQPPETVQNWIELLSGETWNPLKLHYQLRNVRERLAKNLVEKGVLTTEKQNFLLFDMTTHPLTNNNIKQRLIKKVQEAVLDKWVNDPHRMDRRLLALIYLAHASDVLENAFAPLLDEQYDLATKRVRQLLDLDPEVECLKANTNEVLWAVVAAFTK

MYO18A (endogenous), Q92614 1-2054
fold increase in association after CPT versus DMSO control: 3.7 fold
